Residue numbers refer to the chain shown, from its start. “And” between values parts separate entries of the source, which are not always exact repeats. Equal values may be shown once.
B1: I2676 (antibody, V domains shown)
VH: QVQLVESGGGVVQPGRSLRLSCAASGFTFSSYAMHWVRQAPGKGLEWVAVISYDGSNKYYADSVKGRFTISRDNSKNTLYLQMNSLRAEDTAVYYCARVRDRAFDIWGQGTMVTVSS
VL: QAVLTQPASLSASPGASASLTCTLRSGINVGTYRIYWYQQKPGSPPQYLLRYKSDSDKQQGSGVPSRFSGSKDASANAGILLISGLQSEDEADYYCMIWHSSARNWVFGGGTKLTVL
notes: also called anti-CCR8 antibody clone I2676
B2: I2677 (antibody, V domains shown)
VH: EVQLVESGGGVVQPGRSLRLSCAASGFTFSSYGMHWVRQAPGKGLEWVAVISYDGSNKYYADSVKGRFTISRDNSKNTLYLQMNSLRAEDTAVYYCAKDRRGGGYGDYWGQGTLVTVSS
VL: B1 VL with K113Q
notes: also called anti-CCR8 antibody clone I2677
B3: I3210 (antibody, V domains shown)
VH: B1 VH
VL: QAVLTQPASLSASPGASASLTCTLRSGINVGTYRIYWYQQKPGSPPQYLLRIIKSGSSDKQQGSGVPSRFSGSKDASANAGILLISGLQSEDEADYYCMIWHSSARNWVFGGGTKLTVLG
notes: also called anti-CCR8 antibody clone I3210
B4: I3213 (antibody, V domains shown)
VH: B1 VH
VL: QAVLTQPASLSASPGASASLTCTLRSGINLGTYRIYWYQQKPGSPPQYLLRYKSDSDKQQGSGVPSRFSGSKDASANAGILLISGLQSEDEADYYCMIWHSSARNWVFGGGTKLTVLG
notes: also called anti-CCR8 antibody clone I3213
B5: I3144 (antibody, V domains shown)
VH: B1 VH
VL: B1 VL
notes: also called anti-CCR8 antibody clone I3144
B6: I3145 (antibody, V domains shown)
VH: EVQLVETGGGLIQPGGSLRLSCAASGFTVSSNYMSWVRQAPGKGLEWVSVIYSGGSTYYADSVKGRFTISRDNSKNTLYLQMNSLRAEDTAVYYCARGLGSADYWGQGTLVTVSS
VL: DVVMTQSPLSLPVTLGQPASISCRSSQSLLHSNGNTYLNWFQQRPGQSPRRLIYKVSIRDSGVPDRFSGSGSGTDFTLKISRVEAEDVGLYYCMQSTQWPITFGGGTKLEIK
notes: also called anti-CCR8 antibody clone I3145

Assays:
[1] = biological target: T1, human CCR8 (human, UniProt P51685 1-355); test: cell-based or functional assay
[2] = biological target: T2, cynomolgus CCR8 (Macaca fascicularis (cynomolgus), UniProt O97665 1-356 (rhesus entry)); test: flow cytometry on HEK293 cells expressing cynomolgus CCR8, anti-hIgG BV421 secondary
T2 construct: On transfected HEK293 cells (cyCCR8_293); also called cyCCR8; Cyno CCR8
Experimental: (§1) To determine the binding potency of anti-CCR8 antibodies, a flow based binding study was performed. HEK293 were transfected using expression vectors containing human CCR8 (hCCR8), cynomolgus CCR8 (cyCCR8) or murine CCR8 (mCCR8). Anti-CCR8 antibodies were tittered in the presence of hCCR8_293 (FIG. 8A), cyCCR8_293 cells (FIG. 8B) or mCCR8_293 cells (FIG. 8C). The cells were subsequently stained with an anti-hIgG secondary antibody conjugated to Brilliant Violet 421 (Biolegend) to visualize bound anti-CCR8 antibodies. The geometric mean fluorescence intensity of each sample was used to determine the binding EC50 of each antibody with Prism v.8 (Table 4; Graphpad).

[3] = biological target: T3, mCCR8; test: flow cytometry titration on mCCR8_293 (HEK293) cells, anti-hIgG BV421 secondary
T3 construct: also called murine CCR8; mouse CCR8
T3 receptor: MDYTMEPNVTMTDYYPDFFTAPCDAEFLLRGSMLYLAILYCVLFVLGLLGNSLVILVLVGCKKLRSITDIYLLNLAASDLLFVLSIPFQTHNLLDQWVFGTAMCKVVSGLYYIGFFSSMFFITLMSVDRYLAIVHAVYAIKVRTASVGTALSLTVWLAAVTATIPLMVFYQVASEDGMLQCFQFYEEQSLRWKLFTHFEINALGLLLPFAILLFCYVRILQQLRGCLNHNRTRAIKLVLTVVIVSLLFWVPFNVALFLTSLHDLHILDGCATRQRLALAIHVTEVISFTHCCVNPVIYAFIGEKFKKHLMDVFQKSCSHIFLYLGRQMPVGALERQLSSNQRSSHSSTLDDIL
Experimental: as §1

[4] = biological target: T1, human CCR8; test: flow cytometry on HEK293 cells expressing human CCR8, anti-hIgG BV421 secondary
Experimental: as §1

[5] = biological target: T1, human CCR8; test: cell-based or functional assay; remark: listed apart in the source
[6] = biological target: T4, human CX3CR1 (human, UniProt P49238 1-355); test: flow cytometry at 10 ug/ml on dye-barcoded mixed 293 lines, anti-hIgG BV421 secondary
T4 construct: whole, on cells; also called hCX3CR1; huCX3CR1
T4 sequence (looked up): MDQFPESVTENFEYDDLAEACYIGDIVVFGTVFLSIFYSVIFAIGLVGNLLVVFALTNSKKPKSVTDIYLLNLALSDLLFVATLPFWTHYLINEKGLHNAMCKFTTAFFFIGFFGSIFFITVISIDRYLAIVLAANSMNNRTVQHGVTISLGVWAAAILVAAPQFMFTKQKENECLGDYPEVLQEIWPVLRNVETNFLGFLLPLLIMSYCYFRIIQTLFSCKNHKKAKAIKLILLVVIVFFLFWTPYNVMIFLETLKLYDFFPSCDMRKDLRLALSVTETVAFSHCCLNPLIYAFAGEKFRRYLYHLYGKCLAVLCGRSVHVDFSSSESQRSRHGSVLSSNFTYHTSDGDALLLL
Text: (§2) To assess antibody binding selectivity, the cell lines were first labelled with unique combinations of fluorescent dyes to permit antibody staining of all cell lines in a single tube. hCCR8_293 cells were labeled with Cell Trace Far Red (Invitrogen). hCCR4_293 cells were labeled with carboxyfluorescein succinimidyl ester (Invitrogen). hCX3CR1_293 cells were labeled with both Cell Trace Far Red and carboxyfluorescein succinimidyl ester. Parental 293 cells were not labeled with dye. Anti-CCR8 antibodies were prepared at a concentration of 10 ug/ml and incubated with labeled hCCR8_293, hCCR4_293, hCX3CR1_293 or parental 293 cells that were pre-mixed at an equivalent ratio. The cells were washed and then subsequently stained with an anti-hIgG secondary antibody conjugated to Brilliant Violet 421 (Biolegend) to visualize bound antibodies. To determine the selectivity of binding, the individual cell lines were first identified in each sample and the geometric median fluorescence intensity of the secondary antibody was obtained for each population (FIG. 9B). […]

[7] = biological target: T5, human CCR4 (human, UniProt P51679 1-360); test: as above
T5 construct: whole, on cells; also called hCCR4; huCCR4
T5 sequence (looked up): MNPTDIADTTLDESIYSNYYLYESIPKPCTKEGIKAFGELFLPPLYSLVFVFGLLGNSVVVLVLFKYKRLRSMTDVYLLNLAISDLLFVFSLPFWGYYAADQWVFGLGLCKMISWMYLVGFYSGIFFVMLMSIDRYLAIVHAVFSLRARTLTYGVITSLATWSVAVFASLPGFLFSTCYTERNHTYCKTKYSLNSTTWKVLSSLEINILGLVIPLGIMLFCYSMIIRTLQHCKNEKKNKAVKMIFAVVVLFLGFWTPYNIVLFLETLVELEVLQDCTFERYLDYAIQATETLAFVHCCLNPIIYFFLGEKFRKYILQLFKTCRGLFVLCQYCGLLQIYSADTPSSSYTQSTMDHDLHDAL
Text: as §2

[8] = biological target: T4, human CX3CR1; test: flow cytometry on mixed dye-labelled HEK293 transfectants, signal compared with parental 293
Text: as §2

[9] = biological target: T5, human CCR4; test: as above
Text: as §2

[10] = biological target: T2, cynomolgus CCR8; test: flow cytometry titration on cyCCR8_293 (HEK293) cells, anti-hIgG BV421 secondary
Experimental: as §1

T1 sequence (P51685 whole entry): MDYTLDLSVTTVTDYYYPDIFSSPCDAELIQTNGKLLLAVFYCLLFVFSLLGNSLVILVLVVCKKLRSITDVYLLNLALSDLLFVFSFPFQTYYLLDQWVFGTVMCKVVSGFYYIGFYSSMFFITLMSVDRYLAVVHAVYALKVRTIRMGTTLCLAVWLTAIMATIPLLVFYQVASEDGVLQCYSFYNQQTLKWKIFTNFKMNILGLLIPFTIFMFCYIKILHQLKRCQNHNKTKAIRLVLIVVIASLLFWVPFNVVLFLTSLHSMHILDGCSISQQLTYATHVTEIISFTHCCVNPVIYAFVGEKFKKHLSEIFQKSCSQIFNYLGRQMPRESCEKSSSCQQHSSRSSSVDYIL
T2 sequence (O97665 other isoform, or with tags, fused parts or gaps): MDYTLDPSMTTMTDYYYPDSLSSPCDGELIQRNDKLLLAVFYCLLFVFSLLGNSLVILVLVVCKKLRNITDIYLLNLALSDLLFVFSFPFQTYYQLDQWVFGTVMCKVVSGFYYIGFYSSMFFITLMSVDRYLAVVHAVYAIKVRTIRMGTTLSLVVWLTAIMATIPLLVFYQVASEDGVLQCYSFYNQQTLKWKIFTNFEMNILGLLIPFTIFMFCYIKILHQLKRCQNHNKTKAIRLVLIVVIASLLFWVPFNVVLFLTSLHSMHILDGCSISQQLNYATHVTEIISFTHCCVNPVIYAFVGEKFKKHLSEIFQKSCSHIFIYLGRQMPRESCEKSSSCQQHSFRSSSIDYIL

Binder | FcR reporter activation EC50 (Hut78 target cells, Jurkat FcγRIIIa NFAT-luciferase) [1] | EC50 [2] | binding result [3] | EC50 [4] | NK Killing EC50 (primary human NK cells, TALL1 target cells) [5] | binding result [6] | binding result [7] | binding result [8] | binding result [9] | EC50 (read off the curve) [10] [mg/L]
B1 | 0.00592 µg/mL and 39.4 pM | 0.3 µg/mL and 2 nM | no binding (tested: about 30 ug/ml (log 1.5)) | 0.18 µg/mL and 1.2 nM | 0.000856 µg/mL and 6 pM | no binding (tested: 10 ug/ml) | no binding (tested: 10 ug/ml) |  |  | 
B2 | 0.116 µg/mL and 772 pM | 9.6 µg/mL and 64 nM |  | 0.13 µg/mL and 0.9 nM |  |  |  | no binding (tested: 10 ug/ml) | no binding (tested: 10 ug/ml) | 
B3 | 32.1 pM and 0.00482 µg/mL |  |  | 0.2 µg/mL and 1.3 nM | 0.00065 µg/mL and 4.5 pM |  |  |  |  | 
B4 | 0.00455 µg/mL and 30.4 pM |  |  | 0.16 µg/mL and 1.1 nM | 0.000602 µg/mL and 4.2 pM |  |  |  |  | 
B5 | 0.0091 µg/mL and 60.8 pM |  |  | 4.6 nM and 0.69 µg/mL |  | no binding (tested: 10 ug/ml) | no binding (tested: 10 ug/ml) |  |  | ~1
B6 | 0.569 µg/mL and 3790 pM |  |  | 2.43 µg/mL and 16.2 nM |  | no binding (tested: 10 ug/ml) | no binding (tested: 10 ug/ml) |  |  | 
